Laboratory results from patent US11118167B2, “Enzyme-mediated depletion of adenosine and/or methylthioadenosine” (BOARD OF REGENTS, THE UNIVERSITY OF TEXAS SYSTEM, priority 2017, dated 2021).

B1: se-MTAN: MTAN enzyme from Salmonella enterica (SEQ ID NO: 3), N-terminal His6 tag, expressed in E. coli (protein, listed as Salmonella enterica)
chain: MKIGIIGAMEEEVTLLRDKIDNRQTITLGGCEIYTGQLNGTEVALLKSGIGKVAAALGATLLLEHCKPDVIINTGSAGGLASTLKVGDIVVSDETRYHDADVTAFGYEYGQLPGCPAGFKADDKLIAAAESCIRELNLNAVRGLIVSGDAFINGSVGLAKIRHNFPDAVAVEMEATAIAHVCHNFNVPFVVVRAISDVADQQSHLSFDEFLAVAAKQSTLMVETLVQKLAHG
modifications: N-terminal His6 tag
B2: hs-MTAP: MTAP enzyme from Homo sapiens (SEQ ID NO: 1), N-terminal His6 tag, expressed in E. coli (protein, listed as Homo sapiens)
chain: MASGTTTTAVKIGIIGGTGLDDPEILEGRTEKYVDTPFGKPSDALILGKIKNVDCVLLARHGRQHTIMPSKVNYQANIWALKEEGCTHVIVTTACGSLREEIQPGDIVIIDQFIDRTTMRPQSFYDGSHSCARGVCHIPMAEPFCPKTREVLIETAKKLGLRCHSKGTMVTIEGPRFSSRAESFMFRTWGADVINMTTVPEVVLAKEAGICYASIAMATDYDCWKEHEEAVSVDRVLKTLKENANKAKSLLLTTIPQIGSTEWSETLHNLKNMAQFSVLLPRH
modifications: N-terminal His6 tag
B3: PEG-hs-MTAP: hs-MTAP with surface lysine residues reacted with Methoxyl PEG Succinimidyl Carbonate 5000 MW (conjugate, UniProt Q13126 1-283, looked up)
S-methyl-5'-thioadenosine …: B2 chain
modifications: PEG 5000
notes: hs-MTAP with surface lysine residues reacted with Methoxyl PEG Succinimidyl Carbonate 5000 MW

Assays:
murine T cells = test: Restoring proliferation of murine T cells treated with MTA (CellTrace Violet, FACS); format: cell-based, mouse; conditions: 5 μM enzyme, CD8+ and CD4+ T cells
Excerpt: Spleens dissected from healthy 8-week-old C57BL6 mice were crushed in a 70 μm Falcon™ Cell Strainer to obtain single cells, which were further isolated using the EasySep™ Mouse T-Cell Isolation Kit (Stem Cell). Isolated T cells were brought to a concentration of 1×10^6 cells/mL in PBS and were processed according to the CellTrace™ Violet Cell Proliferation Kit protocol (Thermo Fisher), which measures proliferation as a function of dye dilution with each cell-division. The labeled cells were then re-counted and brought to 1×10^6 cells/mL of RPMI media and 1 mL/well were plated, after which anti-CD3/CD28 beads were added to activate the T cells (Dynabeads® Mouse T-Activator CD3/CD28 for T-Cell Expansion and Activation from Thermo Fisher) according to the protocol from the kit. Subsequently, three different MTA concentrations, 0 μM MTA, 125 μM MTA, or 250 μM MTA were added to the plated cells. Finally, MTAP and MTAN were added to the appropriate wells at a final concentration of 5 μM enzyme, and PBS was added to the control wells. After incubation for five days, cells were then collected and stained with anti-CD3, anti-CD4, anti-CD8, and Fixable Viability Dye eFluor™ 520 and analyzed by FACS. The antibodies used were all from Biolegend: PE anti-mouse CD3 (17A2), APC anti-mouse CD4 (GK1.5), APC/Fire™ 750 anti-mouse CD8a (53-6.7), and Brilliant Violet 421™ anti-mouse Ki-67 (16A8). […]

[1] = Kinetic stability of purified enzymes in phosphate buffer; format: physicochemical
Protocol: The kinetic stabilities of purified hs-MTAP and se-MTAN enzymes were determined by incubating the enzymes in a 100 mM phosphate buffer (pH 7.4) at 37° C. Over the course of four days, aliquots of hs-MTAP and se-MTAN were withdrawn from the incubations and assessed for their ability to degrade MTA as described in Example 5. The resulting data were processed and fitted to an exponential equation to determine the decay rate.

WT B16-F10 tumors = test: Efficacy in the B16 WT melanoma tumor model; format: in vivo, mouse; conditions: C57/BL6 mice, 50 mg/kg three times/week peri-tumoral, 2 weeks
Protocol: (§1) Two cohorts each of C57/BL6 mice were subcutaneously inoculated with either 50,000 WT B16-F10 or B16-F10 MTAP^−/− cells. When the tumors reached a mean size of 55 mm^3 the mice were treated with either vehicle (PBS) or 50 mg/kg of PEG-MTAP three times/week by peri-tumoral injection for 2 weeks. As expected from a tumor highly expressing MTAP, it was observed that PEG-MTAP treatment had no effect on the growth of WT B16-F10 tumors (FIG. 8A).

[2] = test system: B16-F10 MTAP−/− allografts; test: Efficacy in the B16-MTAP−/− melanoma tumor model; format: in vivo, mouse; conditions: 50 mg/kg three times/week peri-tumoral, 2 weeks
Excerpt: As B16 is a very well characterized cell line in terms of metabolism and its interaction with host immune systems, it was hypothesized that an MTAP deletion in this strain would create a relevant model to evaluate the consequences of MTA accumulation both metabolically to the tumor and upon the host immune system. Cas9 protein (TrueCut™ Cas9 Protein v2) and synthetic single guide RNA purchased through ThermoFisher were transfected into B16-F10 WT cells using lypofectamine (Lipofectamine™ CRISPRMAX™ Cas9 Transfection Reagent). After two days of transfection, cells were plated using limited dilution method into ten 96-well plates. Plates were examined daily for single cell clones and after reaching confluency (10-14 days post transfection) clones were further expanded and analyzed for MTAP expression through Western blotting, and clones lacking MTAP expression were verified for gene disruption by cloning and sequencing.
as §1

B16-F10 MTAP−/− tumor = test: Immune phenotype in the B16-MTAP−/− melanoma tumor model (FACS); format: in vivo, mouse; conditions: two doses, 24 hr post dose, vs vehicle
Protocol: Lymphocyte panels observed by FACS analyses from C57/BL6 mice bearing B16-F10 MTAP^−/− tumor samples were assessed after treatment with two doses of PEG-MTAP or vehicle (analyzed 24 hr post dose).

| Molecule | reversal of the MTA effect on T cell proliferation and viability (murine T cells) | half-life (T1/2) of activity ([1]; 100 mM phosphate buffer, pH 7.4, 37° C.) [h] | half-life (T1/2) of activity ([1]; pH 7.4) [h] | tumor growth (WT B16-F10 tumors) | complete responses (CRs) in the treatment group ([2]; 3/7 CRs) [%] | tumor growth ([2]; C57/BL6 mice) | percentage of CD4+ T cells (B16-F10 MTAP−/− tumor) | percentage of NK1.1+ natural killer cells (B16-F10 MTAP−/− tumor) | percentage of proliferating CD8+ Granzyme B+ T cells (B16-F10 MTAP−/− tumor) |
| --- | --- | --- | --- | --- | --- | --- | --- | --- | --- |
| B1 | completely reversed | 56 |  |  |  |  |  |  |  |
| B2 | completely reversed |  | 57 |  |  |  |  |  |  |
| B3 |  |  |  | no effect | 43 | drastically retarded tumor growth | large increases | large increases | large increases |
